Assay results as given in patent CN116262786A (NANJING RONGJIEKANG BIOTECHNOLOGY CO LTD, dated 2023).

How the values were obtained:
[1] = molecular target: T1, 人源重组FOLR1蛋白 (人源FOLR1重组胞外结构域蛋白) (human, UniProt P15328 25-233); assay: ELISA, coated FOLR1 1 μg/mL, purified prokaryotic VHH titrated from 2 μg/mL, anti-HA-HRP
T1 construct: range 25-233; a tag is not mentioned; also called FOLR1重组蛋白; 人FOLR1

[2] = molecular target: T1, 人源重组FOLR1蛋白 (人源FOLR1重组胞外结构域蛋白); assay: ELISA, coated FOLR1 of each species 1 μg/mL, VHH-hFc titrated from 2 μg/mL, goat anti-human IgG-HRP
小鼠FOLR1 = molecular target: T2, 小鼠FOLR1 (小鼠 (mouse), UniProt P35846 25-232, limits assumed); assay: as above
T2 construct: also called mouse FOLR1
T2 sequence (P35846 25-232 limits assumed): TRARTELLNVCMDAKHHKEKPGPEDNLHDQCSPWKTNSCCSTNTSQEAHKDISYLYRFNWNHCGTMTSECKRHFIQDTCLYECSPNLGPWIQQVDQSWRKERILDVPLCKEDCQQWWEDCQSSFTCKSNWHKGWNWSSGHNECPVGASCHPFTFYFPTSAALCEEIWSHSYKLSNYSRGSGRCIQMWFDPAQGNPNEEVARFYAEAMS

[3] = molecular target: T1, 人源重组FOLR1蛋白 (人源FOLR1重组胞外结构域蛋白); assay: ELISA of crude periplasmic extract on coated FOLR1 recombinant protein, anti-HA-HRP; positive = OD more than 5 times control

T1 sequence (P15328 25-233 limits assumed): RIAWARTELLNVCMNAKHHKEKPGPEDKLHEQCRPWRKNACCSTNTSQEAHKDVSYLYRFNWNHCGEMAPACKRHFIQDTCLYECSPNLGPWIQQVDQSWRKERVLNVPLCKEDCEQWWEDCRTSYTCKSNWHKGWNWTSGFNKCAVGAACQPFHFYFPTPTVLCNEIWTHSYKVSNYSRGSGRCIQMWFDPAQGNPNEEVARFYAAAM

Binder | binding result [1] | binding result [2] | binding result (小鼠FOLR1) | binding result [3]
单域抗体4B10 (VHH, Prokaryotic (E. coli) VHH from pMECS-VHH; also called VHH14; not shown: tags from vector pMECS (detected with anti-HA, purified on nickel column)) VHH: QVQLVESGGGLVQAGGSLRLSCTASGFTFDDYAMGWFRQAPGKEREGVSCISWNGGSTFYADSVKGRFTIVRDNAKNTVYLEMNSLKPEDTAMYYCAALAYCSGGHWSPGDLSGGYWGQGTQVTVSS | binds | – | – | –
4B10-hFC1 (Fc fusion, human, not shown: a dimerising Fc or GST; small tags and cut ends, domain: Fc区段 (铰链区 Hinge, CH2和CH3区); VHH cloned into vector RJK-V4-hFC; also called VHH-hFc 4B10; 单域抗体4B10的Fc融合抗体) QVQLVESGGGLVQAGGSLRLSCTASGFTFDDYAMGWFRQAPGKEREGVSCISWNGGSTFYADSVKGRFTIVRDNAKNTVYLEMNSLKPEDTAMYYCAALAYCSGGHWSPGDLSGGYWGQGTQVTVSS | – | binds | binds | –
单域抗体2D8 (VHH, Prokaryotic (E. coli) VHH from pMECS-VHH; also called VHH8; not shown: tags from vector pMECS (detected with anti-HA, purified on nickel column)) VHH: QVQLVESGGGSVQAGGSLRLSCAASDYTYRRYCMGWFRQAPGKEREKVAAIYLGDGTTYYTDSVKGRFTISQENAKNTIYLQMNNLKPEDTAMYYCAADRSGCSVTWSYSAFEDWGQGTQVTVSS | binds | – | – | –
2D8-hFC1 (Fc fusion, human, not shown: a dimerising Fc or GST; small tags and cut ends, domain: Fc区段 (铰链区 Hinge, CH2和CH3区); VHH cloned into vector RJK-V4-hFC; also called VHH-hFc 2D8; 单域抗体2D8的Fc融合抗体) QVQLVESGGGSVQAGGSLRLSCAASDYTYRRYCMGWFRQAPGKEREKVAAIYLGDGTTYYTDSVKGRFTISQENAKNTIYLQMNNLKPEDTAMYYCAADRSGCSVTWSYSAFEDWGQGTQVTVSS | – | binds | binds | –
单域抗体1D11 (VHH, Prokaryotic (E. coli) VHH from pMECS-VHH; also called VHH2; not shown: tags from vector pMECS (detected with anti-HA, purified on nickel column)) VHH: QVQLVESGGGSVQAGGSLRLSCAASGDTYSSACMDWFRQAPGKEREGVAGISSGGSTYYADSVKGRFTISRDNAKNTLYLQMNSLKPEDTAMYYCAARRVGRIPCRTMLPGLQDYWGQGTQVTVSS | – | – | – | binds
1D11-hFC1 (Fc fusion, human, not shown: a dimerising Fc or GST; small tags and cut ends, domain: Fc区段 (铰链区 Hinge, CH2和CH3区); VHH cloned into vector RJK-V4-hFC; also called VHH-hFc 1D11; 单域抗体1D11的Fc融合抗体) QVQLVESGGGSVQAGGSLRLSCAASGDTYSSACMDWFRQAPGKEREGVAGISSGGSTYYADSVKGRFTISRDNAKNTLYLQMNSLKPEDTAMYYCAARRVGRIPCRTMLPGLQDYWGQGTQVTVSS | – | binds | binds | –

Now from value to binder:

binding result [1] | binding result [2] | binding result (小鼠FOLR1) | binding result [3] | Binder
binds | – | – | – | 单域抗体3H11 (VHH, Prokaryotic (E. coli) VHH from pMECS-VHH; also called VHH15; not shown: tags from vector pMECS (detected with anti-HA, purified on nickel column)) VHH: QVQLVESGGGSVQTGGSPRLSCAVSGHTYSRLSMGWFRQAPGKEREGVAGIYTGGPSGPMTYYADSVKGRFTISQDNAQRTVYLQMNSLKPEDTAMYYCAATPQFLIGSGLLRPDKYNSWGQGTQVTVSS
– | binds | binds | – | 3H11-hFC1 (Fc fusion, human, not shown: a dimerising Fc or GST; small tags and cut ends, domain: Fc区段 (铰链区 Hinge, CH2和CH3区); VHH cloned into vector RJK-V4-hFC; also called VHH-hFc 3H11; 单域抗体3H11的Fc融合抗体) QVQLVESGGGSVQTGGSPRLSCAVSGHTYSRLSMGWFRQAPGKEREGVAGIYTGGPSGPMTYYADSVKGRFTISQDNAQRTVYLQMNSLKPEDTAMYYCAATPQFLIGSGLLRPDKYNSWGQGTQVTVSS
binds | – | – | – | 单域抗体2E5 (VHH, Prokaryotic (E. coli) VHH from pMECS-VHH; also called VHH11; not shown: tags from vector pMECS (detected with anti-HA, purified on nickel column)) VHH: QVQLVESGGGSVQAGGSLRLSCAASGYPYHRVSMGWFRQAPGKEREGVAGIYTGGLYTGGSMTYYADSVKGRFTISQDNARNTVYLQMNSLKPEDTAMYYCAATPQFLIGSGLLRPDKYNSWGQGTQVTVSS
– | binds | binds | – | 2E5-hFC1 (Fc fusion, human, not shown: a dimerising Fc or GST; small tags and cut ends, domain: Fc区段 (铰链区 Hinge, CH2和CH3区); VHH cloned into vector RJK-V4-hFC; also called VHH-hFc 2E5; 单域抗体2E5的Fc融合抗体) QVQLVESGGGSVQAGGSLRLSCAASGYPYHRVSMGWFRQAPGKEREGVAGIYTGGLYTGGSMTYYADSVKGRFTISQDNARNTVYLQMNSLKPEDTAMYYCAATPQFLIGSGLLRPDKYNSWGQGTQVTVSS
binds | – | – | – | 单域抗体4E11 (VHH, Prokaryotic (E. coli) VHH from pMECS-VHH; also called VHH18; not shown: tags from vector pMECS (detected with anti-HA, purified on nickel column)) VHH: QVQLVESGGGSVQAGGSLRLSCAVSGYTYSSNSMGWFRQAPGKEREGVAAIYTGGGSTYYADSVKGRFTISQDNAKNTVYLQMNSLKPEDTAMYYCAAGGPTWYDGSWSRGDEYTYWGQGTQVTVSS
– | binds | binds | – | 4E11-hFC1 (Fc fusion, human, not shown: a dimerising Fc or GST; small tags and cut ends, domain: Fc区段 (铰链区 Hinge, CH2和CH3区); VHH cloned into vector RJK-V4-hFC; also called VHH-hFc 4E11; 单域抗体4E11的Fc融合抗体) QVQLVESGGGSVQAGGSLRLSCAVSGYTYSSNSMGWFRQAPGKEREGVAAIYTGGGSTYYADSVKGRFTISQDNAKNTVYLQMNSLKPEDTAMYYCAAGGPTWYDGSWSRGDEYTYWGQGTQVTVSS
binds | – | – | – | 单域抗体3B3 (VHH, Prokaryotic (E. coli) VHH from pMECS-VHH; also called VHH4; not shown: tags from vector pMECS (detected with anti-HA, purified on nickel column)) VHH: QVQLVESGGGSVQAGGSLRLSCAASGYTYRRLSMGWFRQAPGKEREAVGGIYTGESMTYYADSVRGRFTISQDNAQNTVYLQMNSLKPEDTATYYCAATPQFLIGSGLLRPDKYDSWGQGTQVTVSS
– | binds | binds | – | 3B3-hFC1 (Fc fusion, human, not shown: a dimerising Fc or GST; small tags and cut ends, domain: Fc区段 (铰链区 Hinge, CH2和CH3区); VHH cloned into vector RJK-V4-hFC; also called VHH-hFc 3B3; 单域抗体3B3的Fc融合抗体) QVQLVESGGGSVQAGGSLRLSCAASGYTYRRLSMGWFRQAPGKEREAVGGIYTGESMTYYADSVRGRFTISQDNAQNTVYLQMNSLKPEDTATYYCAATPQFLIGSGLLRPDKYDSWGQGTQVTVSS
